These results are taken from US20230029635A1 (US Dept. of Health and Human Services, published 2023).

B1: d301 (Fab, V domains shown)
VH: QSLEESGGRLVTPGTPLTLTCTVSGFSLSTYTLGWVRQAPGKGLEYIGWIDSSGSAYYASWAKGRFTISKASSTTVDLKMAGLTTEDTATYFCASGNTGGDPLYYGMDPWGPGTLVTVSS
VL: DPVLTQTPSSTSAAVGGTVTIKCQASQNIGRWLAWYQQKPGQPPKLLIYRASDLASGVPSRFKGSGSGTQFTLTISGVQREDAATYYCLGSYSSSDSAFGGGTEVVVK
notes: Chimeric rabbit/human Fab, kappa, with 6xHis tag; also called Fab d301; d301 r/h-IgG1k
B2: 3N02 (Fab, V domains shown)
VH: QKQLVESGGRLVTPGGSLTLTCTISGIDLNTYGMTWVRQAPGKGLEYIGIIVSSGNTYYANWAQGRFTISKTSTTVDLKMTSLTASDTATYFCARGLGRAYSSGYGMDGWGPGTLVTVSS
VL: DPVLTQTPSSTSAAVGGTVTIKCQASQNIYTSLAWYQQKPGQPPKLLIYGASNLASGVPSRFKGSRSGTEYTLTISGVEREDAATYYCLGSYTQIDTTFGGGTKLEIK
notes: Chimeric rabbit/human Fab (rabbit variable domains, human kappa constant domain) with 6xHis tag in SPR, zymosan ELISA and flow cytometry; also called 3N02 r/h-IgG1k
B3: 5S8 (Fab, V domains shown)
VH: QSVEESGGRLVTPGTPLTLTCTVSGFSLSSYAMTWVRQAPGKGLEWIGVIGTSGMRYYANWAKGRFTISKTSTTVDLKITSPTTEDTATYFCARANFYVGNDESTDAFDPWGPGTLVTVSS
VL: ALVMTQTPPSLSASVGETVRIRCLASEDIYNTISWYQQKPGKPPTLLIYGASNLKSGVPPRFSGSGSGTDYTLTIGGVQSEDAATYYCLGGYSYSSTGLTFGAGTKVEIK
notes: Chimeric rabbit/human Fab, kappa, with 6xHis tag in SPR, zymosan and JeKo-1 assays; also called Fab 5S8; 5S8 r/h-IgG1k
B4: 3N07 (Fab, V domains shown)
VH: B1 VH with T30R, L33M, G34A, A56T, A71T, A81T, G82S, T98D
VL: DGVMTQTPSSTSAAVGGTVTIKCQASQSIRSWLSWYQQKPGQPPKLLIYEASKLASGVPSRFKGSRSGTEYTLAISGVQREDAATYYCLGSIASDDTAFGAGTNVEIK
notes: Chimeric rabbit/human Fab, kappa, with 6xHis tag; also called Fab 3N07; 3N07 r/h-IgG1k
B5: 3NS1 (Fab, V domains shown)
VH: QSVEESGGRLVTPGTPLTLTCTVSGFSLSNYIITWVRQAPGKGLEWIGMISTDGDTYYANWAKGRFTISKTSTTANLKITSPTTEDTATYFCARGLTNFFIWGPGTLVTVSS
VL: QPVLTQSPSVSAALGASAKLTCTLSSAHKTYSIGWYQQHQGEAPRFLMQLRRDGSYTKGTGVPDHFSGSSSGADRYLIIPNVQADDEADYYCGVDYDGGYVFGGGTQLTVTG
notes: Chimeric rabbit/human Fab, lambda, with 6xHis tag; also called 3NS1 r/h-IgG1λ
B6: MN66 (Fab, V domains shown)
VH: QSVEESGGRLVTPGTPLTLTCTVSGFSLSSYAMSWVRQAPGKGLEWIGIIYPNDITYYASWAKGRFTISKTSTTVDLKITSPTTEDTATYFCARVVSWPGYTTEYYFNIWGPGTLVTISS
VL: QFVLTQPQSVSGSLGQTVSMSCKCDSGNIDNYYVHWYQQHPGKAPTTVIYNDDQRPSGVPDRFSGSIDSTSNSASLTITGLLAEDEADYYCLSSVSSDNYVFGGGTQLTVTG
notes: Lambda
B7: 4S04 (Fab, V domains shown)
VH: QEQLKESGGRLVTPGTPLTLTCTASGFSLSTYAMIWVRQAPGKGLEYIGIISYGGSAYYASWAKGRFTISKTSTTVDLKITSPTTEDTATYFCARDRGFGYGYGIGYYGLDPWGPGTLVTVSS
VL: DGVMTQTPSSTSAAVEGTVTINCQASQSIGSYLSWYQQKPGQPPKLLIYQASKMASGVPSRFKGSGSGTQFTLTISNVQGEDAATYYCLGHYVGDWSFGAGTKVEIK
notes: Chimeric rabbit/human Fab, kappa, with 6xHis tag
B8: 3NS3 (Fab, V domains shown)
VH: QSLEESGGGLVTPGTPLTLTCTVSGIDLSAYAMTWVRQAPGKGLEWIGMISTDGATYYASWAKGRFTISKTSTTADLTITSPTTEDTATYFCARGLTNFFIWGPGTLVTISS
VL: QPVLTQSPSASATLGSSAKLTCTLSSAHSTYTIAWYQQKQGESPRCLMYLKSDGSYTRGTGVPDRFSGSSSGADRYLIIPNVQADDEADYYCGADYSGGYLFGGGTQLTVTG
notes: Chimeric rabbit/human Fab, lambda, with 6xHis tag
B9: 4S12 (Fab, V domains shown)
VH: QEQLVESGGRLVTPGTPLTLTCTVSGFSLSSYHMSWVRQAPGKGLEWIGIIYFTGDASYASWAKGRFTISKTSPTTVDLKITSPTTEDTATYFCARDTDWNSSRTIPFDPWGPGTLVTVSS
VL: SFVLTQPASVQVNLGQTVSLTCTADTLSRTYASWYQQKPGQAPVLLIYRDTSRPSGVPDRFSGSSSGNTATLTISGAQAGDEADYYCATSDGSGSSYQYVFGGGTQLTVTG
notes: as for B8
B10: 3NS2 (Fab, V domains shown)
VH: QSVEESGGRLVTPGTPLTLTCTVSGIDLSSYSMGWVRQAPGKGLEWIGIIYNTGRIDYANWAKGRFTISKTSTTVDLKITSPTIGDTATYFCGRGYPGDIWGPGTLVTVSS
VL: DVVMTQTPSSVSAAVGGTVTIKCQASESIYSDLAWYQQKPGQRPKLLIYFASTLASGVPSRFKGSGSGTEYTLTISGVQREDAATYYCLGDYGNSWAFGAGTKVEIK
notes: as for B8
B11: 4S10 (Fab, V domains shown)
VH: B5 VH with G7R, F26I, S27D, N30S, Y31S, I32A, D55A, I68F, N76D, F100S
VL: QPVLTQSPSASAALGASAKLTCTLSSAHKTYTIAWYQQQPGESPRYLMLLKSDGSYTRGPGVPDRFSGSSSGADRYLIIPSVQADDEAGYYCGADYNGGYVFGGGTQLTVTG
notes: as for B8

Positions count from the first letter of the chain named.

T4 sequence (P01027 1002-1303 limits assumed): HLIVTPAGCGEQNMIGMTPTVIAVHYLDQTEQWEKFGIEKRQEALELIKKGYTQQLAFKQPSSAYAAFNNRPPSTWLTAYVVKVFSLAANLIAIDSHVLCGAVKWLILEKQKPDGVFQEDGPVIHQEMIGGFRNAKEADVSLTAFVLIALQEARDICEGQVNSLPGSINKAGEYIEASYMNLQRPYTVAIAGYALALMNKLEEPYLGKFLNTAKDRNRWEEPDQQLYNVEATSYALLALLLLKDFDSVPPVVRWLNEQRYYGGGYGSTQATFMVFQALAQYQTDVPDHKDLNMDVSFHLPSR

In the first assay the target is T1, hFc-mC3d (mouse, UniProt P01027 1002-1303).
T1 construct: domain: C3d; also called hFc-mC3d fusion protein; not shown: human Fc of vector pCEP4-hFc
T1 sequence (P01027 other isoform, or with tags, fused parts or gaps): as the sequence (P01027 1002-1303 limits assumed) above, with C9A counted along it
The experiment in a line: Table 3, column Mouse C3d; rounded form of the SPR Kd on hFc-mC3d of Table 2. The protocol: (§1) Surface plasmon resonance (SPR) for the measurement of kinetic and thermodynamic parameters of the binding of purified antibodies to hC3d or mC3d antigens was performed on a Biacore X100 instrument using Biacore reagents and software (GE Healthcare, Chicago, Ill.). A mouse anti-human IgG CH2 mAb was immobilized on a CM5 sensor chip using reagents and instructions supplied with the Human Antibody Capture Kit (GE Healthcare). hFc-hC3d and hFc-mC3d fusion proteins were captured at a density not exceeding 400 RU. Each sensor chip included an empty flow cell for instantaneous background depletion. All binding assays used 1×HBS-EP+ running buffer (10 mM HEPES, 150 mM NaCl, 3 mM EDTA (pH 7.4), and 0.05% (v/v) surfactant P20) and a flow rate of 30 μL/min. All of the Fabs were injected at five different concentrations (dilution factor was 2), and the lowest concentration was tested in duplicates. The sensor chips were regenerated with 3 M MgCl₂ from the Human Antibody Capture Kit without any loss of binding capacity. Calculation of association (kₒₙ) and dissociation (koff) rate constants was based on a 1:1 Langmuir binding model. The equilibrium dissociation constant (KD) was calculated from koff/kₒₙ.
Turning to B1, binding was put at a Kd of 23 nM.

On to B2, for which binding was put at a Kd of 98 nM.

As to B3, the dissociation constant Kd (commonly the concentration at which binding is half-saturated) was 9 nM.

For the next assay, the target named is T1, hFc-mC3d. The experiment in a line: SPR (Biacore X100), hFc-mC3d captured by anti-human IgG CH2 mAb, Fab injected, 1:1 Langmuir. The protocol: as §1
Turning to B4, the dissociation constant Kd is 132 nM.

Take B1: the dissociation constant (Kd) amounted to 22.9 nM. This Kd lies about 5.8-fold lower than the previous one.

B2 registered a Kd of 97.6 nM.

Molecule B3 had a Kd of 9.04 nM. This Kd is about 11-fold lower than that of the molecule before.

A further assay deals with T1, hFc-mC3d. Put plainly: Table 3, column Mouse C3d; the SPR Kd on hFc-mC3d of Table 2. As for the experimental part:
as §1
The molecule B4 yielded a dissociation constant Kd of 132 nM.

The next assay deals with T2, Jeko1 cell line deposited C3d (human, UniProt P01024 1002-1303, limits assumed).
T2 construct: domain: C3d; also called human C3d on JeKo-1 cells
T2 sequence (P01024 1002-1303 limits assumed): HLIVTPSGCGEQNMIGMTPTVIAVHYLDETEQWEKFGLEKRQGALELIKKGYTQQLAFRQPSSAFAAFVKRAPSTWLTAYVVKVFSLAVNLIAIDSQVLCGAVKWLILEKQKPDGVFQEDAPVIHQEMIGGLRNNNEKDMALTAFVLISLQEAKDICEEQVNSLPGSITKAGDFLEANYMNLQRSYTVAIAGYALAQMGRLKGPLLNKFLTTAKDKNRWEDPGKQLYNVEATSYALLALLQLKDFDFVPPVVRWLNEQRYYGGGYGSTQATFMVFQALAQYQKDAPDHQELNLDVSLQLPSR
Put plainly: flow cytometry: Fab at 2.5 µg/mL on JeKo-1 cells opsonized with 10 µg/mL rituximab and incubated with 50% C5-depleted human serum for 2 h with 0.5 U/mL CR1 or for 24 h (C3b/iC3b decayed to C3d). As for the experimental part: FIG. 13 is a graph showing the binding activity of antibodies of the invention to different human C3 fragments. The binding of each chimeric rabbit/human Fab at 2.5 μg/mL to C3b/iC3b/(C3d), or C3d was determined by flow cytometry against JeKo-1 cells deposited with human C3 fragments after opsonization by 10 μg/mL rituximab (RTX) followed by incubation with 50% CS-depleted human serum for 2 h with or without 0.5 U/mL CR1 or 24 h. In the presence of CR1 or after treatment with serum for 24 h, most of C3 fragments had decayed from C3b/iC3b to C3d.
To deposit C3 fragments on zymosan, one hundred million of preactivated zymosan particles (Complement Technology, Inc.) were washed and then incubated with 50% pooled normal human complement serum (PNHCS) or normal BALB/c mouse or cynomolgus complement serum in 1 mL Dulbecco's phosphate-buffered saline (DPBS) at 37° C. for 1 h. For JeKo-1 cells, 10 μg/mL rituximab (RTX) was first used to opsonize cells followed by incubation with 50% CS-depleted PNHCS. To allow C3b/iC3b deposited on JeKo-1 cells to decay to C3d, the incubation time of cells with serum was prolonged to 24 h, or 0.5 U/mL CR1 (rhCD35, R&D Systems, Minneapolis, Minn.) was included during the incubation. […]
On the technique in general: Flow cytometry measures light scatter and fluorescence of single cells or particles in a stream.
In the case of B5, the binding result was “binds”.

The target in a further assay is T3, hFc-hC3d (human, UniProt P01024 1002-1303).
T3 construct: range 1002-1303; expressed in HEK293F cells, purified on Protein A; also called hFc-hC3d fusion protein; not shown: human Fc of vector pCEP4-hFc
T3 sequence (P01024 other isoform, or with tags, fused parts or gaps, form in doubt): as the sequence (P01024 1002-1303 limits assumed) above, with C9A counted along it
Put plainly: SPR (Biacore X100), hFc-hC3d captured by anti-human IgG CH2 mAb, Fab injected, 1:1 Langmuir. The protocol:
as §1
(In general: SPR reads the build-up and loss of mass on a sensor chip optically.)
B6: the equilibrium dissociation constant (Kd) worked out at 0.31 nM.

In turn, B7 yielded a Kd of 4.11 nM.

In turn, B4 came in with a Kd of 3.1 nM.

B1: the affinity, expressed as Kd, was 0.99 nM.

Consider B2, for which binding was put at a Kd of 13.3 nM.

With B3, the Kd was 3.35 nM.

The next assay deals with T3, hFc-hC3d. The experiment in a line: Table 3, column Human C3d; rounded form of the SPR Kd on hFc-hC3d of Table 2. As for the experimental part:
as §1
In turn, B4 returned a Kd of 3.1 nM. This counts as single-digit nanomolar.

In turn, B2 gave a Kd of 13 nM.

The molecule B3 showed a Kd of 3.4 nM. This Kd is about 3.8-fold lower than that of the molecule before.

A further assay addresses T4, Mouse C3b/iC3b/C3d deposited on zymosan particles (mouse, UniProt P01027 1002-1303, limits assumed).
T4 construct: also called Zymosan deposited C3b/iC3b/(C3d) mouse
Put plainly: flow cytometry: His-tagged Fab at 5 µg/mL on zymosan particles opsonized with 50% mouse serum, mouse anti-6xHis Alexa Fluor 488. The protocol:
One million zymosan particles deposited with C3b/iC3b/C3d were added into one well of a V-bottom 96-well plate. Then 500 ng/100 μL of antibody was applied in each well at 37° C. for 1 h. After washing three times by phosphate buffered saline and TWEEN™ 20 (PBST), 100 μL of a 1:1000 dilution of a mouse anti-His tag mAb conjugated to ALEXA FLUOR™ 488 (Qiagen, Hilden, Germany) in 1% (w/v) bovine serum albumin (BSA)/DPBS was used to detect the antibody.
The cross reactivity of 5 μg/mL of antibodies of the invention with 6xHis tag to human, or cynomolgus, or mouse C3b/iC3b/C3d deposited on zymosan particles after incubation with 50% corresponding serum at 37° C. for 45 min was determined by flow cytometry with a secondary mouse anti-HIS mAb conjugated to ALEXA FLUOR™ 488. […] In Table 3, the relative level of affinity is shown by the number of plus or minus signs (e.g., +++=high affinity). m/h and r/h denote […], respectively, variable domains fused human constant domains; k, kappa light chain; λ, lambda light chain.
For the molecule B5, the binding result was “no binding (tested: 5 µg/mL)”.

Take B8: the binding result is listed as “no binding (tested: 5 µg/mL)”.

As for B9, the binding result is recorded as “no binding (tested: 5 µg/mL)”.

With B10, the binding result is reported as “no binding (tested: 5 µg/mL)”.

The next assay deals with T3, hFc-hC3d. The experiment in a line: Table 3, column Human C3d; the SPR Kd on hFc-hC3d of Table 2. As for the experimental part:
as §1
On to B1, for which the Kd was determined as 0.99 nM. In other words, the sub-nanomolar range.

The target of another assay is T1, hFc-mC3d. Put plainly: SPR, hFc-mC3d captured by anti-human IgG CH2 mAb, Fab injected.
As for B5, the binding result is given as “no binding”.

Turning to B11, the binding result is recorded as “no binding”.

In the case of B8, the binding result is “no binding”.

For B9, the binding result is recorded as “no binding”.

As to B10, the binding result is “no binding”.
